Reference: US20220332804A1 (CSL INNOVATION, published 2022)

Columns and labels:
Assay in all cases: SPR, mAb captured, C2 mutant analyte;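 also: Anti-C2 mAbs captured on goat anti-human IgG Biacore CM5 chips, alanine or serine C2 surface mutants flowed over at 37 °C, double-referenced sensorgrams fitted to a 1:1 binding model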
human C2 D431A = target: T1, human C2 D431A (human, UniProt P06681 21-752)
T1 sequence: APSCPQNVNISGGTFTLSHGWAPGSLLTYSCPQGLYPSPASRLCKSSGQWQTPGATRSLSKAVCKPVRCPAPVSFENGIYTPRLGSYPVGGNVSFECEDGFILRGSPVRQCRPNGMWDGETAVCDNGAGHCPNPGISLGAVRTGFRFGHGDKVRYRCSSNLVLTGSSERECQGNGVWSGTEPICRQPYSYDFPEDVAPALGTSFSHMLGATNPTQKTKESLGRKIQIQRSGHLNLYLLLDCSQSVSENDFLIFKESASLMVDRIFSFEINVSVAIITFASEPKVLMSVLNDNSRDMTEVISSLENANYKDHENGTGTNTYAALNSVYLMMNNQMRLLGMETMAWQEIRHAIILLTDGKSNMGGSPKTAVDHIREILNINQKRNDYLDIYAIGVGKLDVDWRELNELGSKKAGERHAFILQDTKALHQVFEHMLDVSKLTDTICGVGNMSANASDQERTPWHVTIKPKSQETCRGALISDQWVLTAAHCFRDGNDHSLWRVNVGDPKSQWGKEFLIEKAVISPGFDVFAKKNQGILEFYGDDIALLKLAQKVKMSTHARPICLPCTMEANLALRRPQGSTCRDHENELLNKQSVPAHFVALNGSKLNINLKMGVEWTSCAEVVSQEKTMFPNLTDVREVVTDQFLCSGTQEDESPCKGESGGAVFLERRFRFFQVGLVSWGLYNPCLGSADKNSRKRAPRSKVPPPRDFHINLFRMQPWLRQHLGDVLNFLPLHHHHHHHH

human C2 I320A = target: T2, human C2 I320A (human, UniProt P06681 21-752)
T2 sequence: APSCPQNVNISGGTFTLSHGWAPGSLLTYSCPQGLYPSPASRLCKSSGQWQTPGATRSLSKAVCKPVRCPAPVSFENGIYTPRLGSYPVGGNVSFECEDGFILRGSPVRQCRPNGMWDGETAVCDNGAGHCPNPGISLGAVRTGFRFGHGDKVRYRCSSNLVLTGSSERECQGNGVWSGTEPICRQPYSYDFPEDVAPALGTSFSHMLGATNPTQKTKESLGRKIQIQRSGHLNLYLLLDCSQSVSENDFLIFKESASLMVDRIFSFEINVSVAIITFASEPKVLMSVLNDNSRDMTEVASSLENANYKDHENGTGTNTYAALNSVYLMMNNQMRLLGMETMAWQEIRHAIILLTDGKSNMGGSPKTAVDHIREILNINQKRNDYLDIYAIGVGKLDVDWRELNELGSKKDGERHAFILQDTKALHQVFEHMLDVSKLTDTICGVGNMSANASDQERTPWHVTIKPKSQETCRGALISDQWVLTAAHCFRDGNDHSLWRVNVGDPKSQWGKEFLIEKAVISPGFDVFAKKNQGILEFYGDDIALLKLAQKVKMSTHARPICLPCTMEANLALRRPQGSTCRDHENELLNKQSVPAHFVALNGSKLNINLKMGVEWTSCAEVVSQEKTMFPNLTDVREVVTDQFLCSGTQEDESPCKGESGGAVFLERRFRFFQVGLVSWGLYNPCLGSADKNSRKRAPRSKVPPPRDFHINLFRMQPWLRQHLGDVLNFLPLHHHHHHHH

human C2 E450A = target: T3, human C2 E450A (human, UniProt P06681 21-752)
T3 sequence: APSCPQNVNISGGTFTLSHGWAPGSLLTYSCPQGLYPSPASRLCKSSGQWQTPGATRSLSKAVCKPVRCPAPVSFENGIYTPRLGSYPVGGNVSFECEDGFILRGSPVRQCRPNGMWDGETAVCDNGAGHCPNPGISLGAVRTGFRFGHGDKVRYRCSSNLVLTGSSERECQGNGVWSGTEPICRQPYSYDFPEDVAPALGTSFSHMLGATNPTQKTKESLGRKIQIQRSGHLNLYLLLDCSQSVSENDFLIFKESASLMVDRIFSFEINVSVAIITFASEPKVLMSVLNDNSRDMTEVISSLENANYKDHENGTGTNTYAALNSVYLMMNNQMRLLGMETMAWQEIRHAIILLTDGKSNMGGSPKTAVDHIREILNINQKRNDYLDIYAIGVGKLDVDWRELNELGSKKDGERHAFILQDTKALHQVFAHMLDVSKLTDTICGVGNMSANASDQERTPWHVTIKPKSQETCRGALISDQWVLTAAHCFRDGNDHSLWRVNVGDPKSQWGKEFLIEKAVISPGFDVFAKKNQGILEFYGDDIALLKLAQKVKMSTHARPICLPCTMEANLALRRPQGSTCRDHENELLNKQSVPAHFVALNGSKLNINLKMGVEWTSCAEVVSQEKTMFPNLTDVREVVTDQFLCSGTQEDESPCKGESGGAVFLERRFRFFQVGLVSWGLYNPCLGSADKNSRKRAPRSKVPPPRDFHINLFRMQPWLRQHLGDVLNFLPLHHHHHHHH

human C2 S469A = target: T4, human C2 S469A (human, UniProt P06681 21-752)
T4 sequence: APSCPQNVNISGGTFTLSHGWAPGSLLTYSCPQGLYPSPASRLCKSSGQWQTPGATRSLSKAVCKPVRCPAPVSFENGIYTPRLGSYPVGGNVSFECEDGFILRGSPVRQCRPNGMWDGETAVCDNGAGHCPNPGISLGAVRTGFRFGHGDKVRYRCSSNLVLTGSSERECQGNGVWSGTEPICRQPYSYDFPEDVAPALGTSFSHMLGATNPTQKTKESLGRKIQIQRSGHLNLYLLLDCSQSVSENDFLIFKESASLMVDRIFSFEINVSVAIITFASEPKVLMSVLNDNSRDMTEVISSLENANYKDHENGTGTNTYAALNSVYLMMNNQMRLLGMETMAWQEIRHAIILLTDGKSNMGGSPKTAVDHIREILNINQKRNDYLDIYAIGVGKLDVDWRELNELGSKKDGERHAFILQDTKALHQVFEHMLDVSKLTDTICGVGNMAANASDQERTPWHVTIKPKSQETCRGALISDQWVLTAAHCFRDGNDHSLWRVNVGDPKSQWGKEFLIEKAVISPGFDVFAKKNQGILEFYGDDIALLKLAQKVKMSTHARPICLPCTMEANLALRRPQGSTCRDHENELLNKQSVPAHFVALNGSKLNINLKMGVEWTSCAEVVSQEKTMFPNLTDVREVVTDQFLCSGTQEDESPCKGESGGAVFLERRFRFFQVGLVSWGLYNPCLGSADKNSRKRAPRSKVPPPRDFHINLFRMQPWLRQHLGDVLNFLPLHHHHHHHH

B1: RF16-214 (antibody, V domains shown)
VH: EVQLLESGGGLVQPGGSLRLSCAASGFTFSWYQMMWVRQAPGKGLEWVSRIYPSGGGTAYADSVKGRFTISRDNSKNTLYLQMNSLRAEDTAVYYCARDAGYGDNWGQGTLVTVSS
VL: QSALTQPPSVSVSPGQTASITCSGDKLGEKYASWYQQKAGQSPVMVIYQDRKRPSGIPERFSGSNSGNTATLTISGTQAMDEADYYCQAWDTRAVVFGGGTKLTVLG
- Kd (human C2 D431A): 71.8 nM
- binding result (human C2 I320A): no binding
- Kd (human C2 E450A): 627 nM
- Kd (human C2 S469A): 106 nM
